Assay results: the supplement of paper PMC10567573

B1: EHMT1 (parent)
chain: FHKDCASRVNNASYCPHCGEESSK

Variants of: B1
Test: protein stability index of a GFP-peptide fusion (GPS, HEK-293T) (PSI 1-6); higher = more stable
Conditions: c terminus: a fixed tail appended
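Note: lentivirally expressed fusions sorted by FACS into six bins by GFP to DsRed ratio, PSI derived from sequencing read proportions per bin multiplied by bin number.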

Protein stability index: each site, then its substitutions
K24: M 3.26 | F 3.07 | T 3.25 | Q 3.49 | D 3.58 | Y 2.9 | I 3.27 | L 3.43 | P 3.22 | H 3.45 | C 3.7 | A 2.92 | V 3.47 | W 3.05 | E 3.11 | R 2.5
N10: H 3.94 | T 3.03 | D 3.9 | R 2.99 | S 3.24 | A 3.6 | I 3.08 | W 2.37 | Y 1.95 | P 3.33 | V 2.92 | Q 3.52 | L 3.31 | C 3.75
V9: G 4.14 | Q 3.74 | D 3.94 | F 2.92 | M 3.37 | N 3.39 | K 3.66 | C 4.31 | I 3.65 | P 3.84 | A 3.47 | W 2.31 | L 3.73
N11: L 2.53 | K 3.54 | A 2.91 | H 3.82 | E 3.46 | M 3.36 | P 3.25 | W 1.89 | R 3.47 | C 3.21 | D 3.64 | S 3.08 | I 2.22 | V 3.12 | T 3.21
S22: Y 3.36 | C 3.59 | R 3.05 | H 4.09 | F 3.2 | G 2.81 | A 3.46 | L 3.22 | M 3.31
D4: H 2.84 | L 2 | T 2.47 | F 2.04 | I 2.56 | V 2.41 | A 3.16 | Y 2.02 | K 2.59 | E 3.55 | W 1.96 | P 1.88 | M 1.83 | S 3.12 | N 3.3 | R 2.3
C15: A 3.32 | I 3.32 | E 4.22 | T 3.59 | V 3.67 | S 3.55 | G 3.82 | W 2.08 | F 3.04 | M 3.16 | L 3.45 | N 3.88 | P 3.75 | D 3.89
E20: I 2.95 | V 2.94 | W 3.77 | F 2.93 | C 3.55 | L 2.78 | G 3.6 | T 3.19 | M 3.15 | R 3.16 | H 2.99 | P 3.27 | N 3.37 | S 3.16 | Y 3.46 | K 3.68 | Q 3.14
A6: E 3.6 | F 2.28 | I 3.23 | P 3.83 | S 3.52 | K 3.53 | H 3.34 | W 1.96 | Q 4.04 | R 2.97 | D 3.52 | G 3.59 | V 3.5 | Y 2.26 | N 3.41
C18: M 2.96 | E 4.36 | S 3.68 | N 3.67 | Q 3.59 | A 3.76 | G 3.63 | R 3.73 | Y 3.16 | K 3.85 | V 3.75 | F 2.93 | D 4.03
C5: E 2.82 | Y 2.25 | R 2.36 | W 2.55 | I 2.42 | K 2.13 | Q 2.25 | V 2.59 | A 2.53 | H 2.3 | P 1.77 | D 3.19 | M 2.46 | F 2.72
S23: C 4.21 | A 3.63 | P 3.15 | H 3.48 | R 3.21 | E 3.21 | W 2.69 | I 3.87 | G 3.34 | V 3.41 | D 3.39 | N 3.41 | T 3.72 | K 3.16 | Y 3.6
F1: K 4.62 | D 4.77 | S 4.77 | Q 5.09 | W 4.02 | V 4.78 | Y 3.85 | A 4.71 | R 4.59 | M 4.9 | N 4.87 | G 5.15 | P 4.43 | E 5.17 | T 4.43
H17: Q 3.21 | N 3.85 | S 3.4 | C 3.45 | P 2.87 | D 3.84 | L 3.05 | W 2.16 | E 3.47 | T 3.58 | I 3.35 | A 3.68 | F 2.96 | G 3.18 | K 3.43
A12: C 3.35 | R 3.33 | I 2.95 | K 3.36 | S 3.29 | V 3 | M 3.24 | T 3.31 | Q 3.96 | G 4.34 | H 3.22 | E 3.81 | F 2.48 | Y 2.85 | W 2.54
H2: E 4.62 | I 2.08 | W 2.62 | C 5.31 | T 3 | G 3.6 | F 3.27 | L 3.58 | K 4.17 | Q 3.1 | Y 3.69 | N 4.18 | R 3.65
S13: E 3.77 | R 3.16 | W 2.15 | H 3.66 | M 3.13 | Y 2.34 | F 2.34 | G 3.97 | N 3.6 | K 3.46 | P 3.12 | T 3.72 | V 2.76 | A 3.36
Y14: W 2.45 | I 3.47 | T 3.73 | R 3.52 | H 3.47 | A 3.31 | C 3.66 | M 3.59 | N 3.75 | F 3.36 | L 3.82 | G 3.38 | D 3.77 | E 4.05 | K 3.59
R8: D 3.43 | E 2.86 | A 3.78 | P 3.37 | S 3.49 | L 3.39 | V 3.34 | T 3.1 | C 3.66 | Y 2.63 | F 2.35 | H 4.23 | G 3.97
E21: G 3.29 | L 2.55 | M 2.64 | V 2.32 | Q 3.12 | I 2.83 | H 3 | A 3.52 | N 3.17 | T 3.4 | S 2.71 | P 2.41 | R 2.92
P16: R 2.96 | I 3.36 | A 3.24 | M 3.07 | Y 2.58 | S 3.23 | V 3.89 | E 3.94 | H 3.15 | G 3.24 | T 3.42 | N 3.29 | Q 3.61 | C 3.11 | L 3.35 | W 1.66 | K 3.57
S7: N 2.83 | G 3.47 | T 3.28 | P 2.87 | E 3.54 | A 3.71 | I 3.54 | L 3.44 | W 2.76 | C 4.27 | D 3.23
K3: H 2.9 | V 2.92 | C 4.57 | A 2.58 | M 2.29 | R 2.57 | D 3.47 | S 2.01 | T 2.45 | Q 2.27 | F 1.92 | W 1.78
G19: R 2.84 | P 3.75 | L 3.67 | D 3.9 | E 4.05 | F 3 | H 3.36 | I 3.87 | M 3.55 | W 2.96
